Assay results: IntAct's records for PubMed 31515488

B1: Gem-associated protein 7 (Homo sapiens), Q9H840 (parent)
chain: MQTPVNIPVPVLRLPRGPDGFSRGFAPDGRRAPLRPEVPEIQECPIAQESLESQEQRARAALRERYLRSLLAMVGHQVSFTLHEGVRVAAHFGATDLDVANFYVSQLQTPIGVQAEALLRCSDIISYTFKP
B2: Keratin, type II cytoskeletal 6A (Homo sapiens), P02538 (parent)
chain: MASTSTTIRSHSSSRRGFSANSARLPGVSRSGFSSVSVSRSRGSGGLGGACGGAGFGSRSLYGLGGSKRISIGGGSCAISGGYGSRAGGSYGFGGAGSGFGFGGGAGIGFGLGGGAGLAGGFGGPGFPVCPPGGIQEVTVNQSLLTPLNLQIDPTIQRVRAEEREQIKTLNNKFASFIDKVRFLEQQNKVLETKWTLLQEQGTKTVRQNLEPLFEQYINNLRRQLDSIVGERGRLDSELRGMQDLVEDFKNKYEDEINKRTAAENEFVTLKKDVDAAYMNKVELQAKADTLTDEINFLRALYDAELSQMQTHISDTSVVLSMDNNRNLDLDSIIAEVKAQYEEIAQRSRAEAESWYQTKYEELQVTAGRHGDDLRNTKQEIAEINRMIQRLRSEIDHVKKQCANLQAAIADAEQRGEMALKDAKNKLEGLEDALQKAKQDLARLLKEYQELMNVKLALDVEIATYRKLLEGEECRLNGEGVGQVNISVVQSTVSSGYGGASGVGSGLGLGGGSSYSYGSGLGVGGGFSSSSGRAIGGGLSSVGGGSSTIKYTTTSSSSRKSYKH
partner: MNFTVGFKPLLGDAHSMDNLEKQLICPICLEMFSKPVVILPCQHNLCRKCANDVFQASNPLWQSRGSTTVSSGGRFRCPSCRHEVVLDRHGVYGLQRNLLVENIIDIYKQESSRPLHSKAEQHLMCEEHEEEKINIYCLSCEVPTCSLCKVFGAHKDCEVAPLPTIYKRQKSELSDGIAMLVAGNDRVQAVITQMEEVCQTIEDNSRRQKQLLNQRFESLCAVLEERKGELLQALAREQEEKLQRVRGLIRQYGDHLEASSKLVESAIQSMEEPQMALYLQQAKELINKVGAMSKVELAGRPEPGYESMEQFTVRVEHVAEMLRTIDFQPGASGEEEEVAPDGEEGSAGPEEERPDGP
B3: Tripartite motif-containing protein 59 (Homo sapiens), Q8IWR1 (parent)
chain: MHNFEEELTCPICYSIFEDPRVLPCSHTFCRNCLENILQASGNFYIWRPLRIPLKCPNCRSITEIAPTGIESLPVNFALRAIIEKYQQEDHPDIVTCPEHYRQPLNVYCLLDKKLVCGHCLTIGQHHGHPIDDLQSAYLKEKDTPQKLLEQLTDTHWTDLTHLIEKLKEQKSHSEKMIQGDKEAVLQYFKELNDTLEQKKKSFLTALCDVGNLINQEYTPQIERMKEIREQQLELMALTISLQEESPLKFLEKVDDVRQHVQILKQRPLPEVQPVEIYPRVSKILKEEWSRTEIGQIKNVLIPKMKISPKRMSCSWPGKDEKEVEFLKILNIVVVTLISVILMSILFFNQHIITFLSEITLIWFSEASLSVYQSLSNSLHKVKNILCHIFYLLKEFVWKIVSH
partner: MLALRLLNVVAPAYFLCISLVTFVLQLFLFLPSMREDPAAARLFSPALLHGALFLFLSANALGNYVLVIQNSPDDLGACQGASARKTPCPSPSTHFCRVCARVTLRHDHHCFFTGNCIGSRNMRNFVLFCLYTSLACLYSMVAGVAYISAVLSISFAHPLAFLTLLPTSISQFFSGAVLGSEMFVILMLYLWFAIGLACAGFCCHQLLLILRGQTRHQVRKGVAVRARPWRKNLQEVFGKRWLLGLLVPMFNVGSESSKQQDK
B4: Protein SSX3 (Homo sapiens), Q99909 (parent)
chain: MNGDDTFARRPTVGAQIPEKIQKAFDDIAKYFSKEEWEKMKVSEKIVYVYMKRKYEAMTKLGFKAILPSFMRNKRVTDFQGNDFDNDPNRGNQVQRPQMTFGRLQGIFPKIMPKKPAEEGNVSKEVPEASGPQNDGKQLCPPGKPTTSEKINMISGPKRGEHAWTHRLRERKQLVIYEEISDPEEDDE
B5: Trichoplein keratin filament-binding protein (Homo sapiens), Q9BT92 (parent)
chain: MALPTLPSYWCSQQRLNQQLARQREQEARLRQQWEQNSRYFRMSDICSSKQAEWSSKTSYQRSMHAYQREKMKEEKRRSLEARREKLRQLMQEEQDLLARELEELRLSMNLQERRIREQHGKLKSAKEEQRKLIAEQLLYEHWKKNNPKLREMELDLHQKHVVNSWEMQKEEKKQQEATAEQENKRYENEYERARREALERMKAEEERRQLEDKLQAEALLQQMEELKLKEVEATKLKKEQENLLKQRWELERLEEERKQMEAFRQKAELGRFLRHQYNAQLSRRTQQIQEELEADRRILQALLEKEDESQRLHLARREQVMADVAWMKQAIEEQLQLERAREAELQMLLREEAKEMWEKREAEWARERSARDRLMSEVLTGRQQQIQEKIEQNRRAQEESLKHREQLIRNLEEVRELARREKEESEKLKSARKQELEAQVAERRLQAWEADQQEEEEEEEARRVEQLSDALLQQEAETMAEQGYRPKPYGHPKIAWN
partner: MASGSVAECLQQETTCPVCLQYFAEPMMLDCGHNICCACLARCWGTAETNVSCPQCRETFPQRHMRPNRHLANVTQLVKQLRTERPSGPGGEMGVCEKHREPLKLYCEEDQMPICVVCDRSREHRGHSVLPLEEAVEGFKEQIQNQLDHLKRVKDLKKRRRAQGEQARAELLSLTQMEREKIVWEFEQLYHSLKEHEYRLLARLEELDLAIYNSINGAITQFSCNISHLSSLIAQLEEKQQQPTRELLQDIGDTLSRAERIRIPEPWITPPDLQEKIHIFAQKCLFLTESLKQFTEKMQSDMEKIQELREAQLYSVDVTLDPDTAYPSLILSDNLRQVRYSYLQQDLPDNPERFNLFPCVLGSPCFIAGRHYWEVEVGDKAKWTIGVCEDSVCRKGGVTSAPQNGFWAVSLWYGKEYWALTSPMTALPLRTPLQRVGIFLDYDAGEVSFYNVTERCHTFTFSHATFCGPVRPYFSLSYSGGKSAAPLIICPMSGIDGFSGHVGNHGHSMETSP

Variants of: B1
Details: with gemi6_human GEMIN6, Q8WXD5
Sequence of gemi6_human GEMIN6, Q8WXD5 (Q8WXD5 whole entry): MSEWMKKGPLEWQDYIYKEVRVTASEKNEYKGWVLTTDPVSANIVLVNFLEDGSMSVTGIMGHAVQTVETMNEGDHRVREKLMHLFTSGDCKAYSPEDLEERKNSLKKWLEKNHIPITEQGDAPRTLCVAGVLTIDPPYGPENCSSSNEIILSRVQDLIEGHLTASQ

effect of a mutation on the interaction | Variant
with no effect | R68C

Variants of: B2
Details: with tri54_human TRIM54, Q9BYV2

effect of a mutation on the interaction | Variant
with no effect | R415H
with no effect | V523F
with no effect | A335T
with no effect | T552S
with no effect | L210M
with no effect | R559G

Variants of: B3
Details: with zdh22_human ZDHHC22, Q8N966

effect of a mutation on the interaction | Variant
with no effect | I277V

Variants of: B4
Details: with cep63_human CEP63, Q96MT8
Sequence of cep63_human CEP63, Q96MT8 (Q96MT8 whole entry): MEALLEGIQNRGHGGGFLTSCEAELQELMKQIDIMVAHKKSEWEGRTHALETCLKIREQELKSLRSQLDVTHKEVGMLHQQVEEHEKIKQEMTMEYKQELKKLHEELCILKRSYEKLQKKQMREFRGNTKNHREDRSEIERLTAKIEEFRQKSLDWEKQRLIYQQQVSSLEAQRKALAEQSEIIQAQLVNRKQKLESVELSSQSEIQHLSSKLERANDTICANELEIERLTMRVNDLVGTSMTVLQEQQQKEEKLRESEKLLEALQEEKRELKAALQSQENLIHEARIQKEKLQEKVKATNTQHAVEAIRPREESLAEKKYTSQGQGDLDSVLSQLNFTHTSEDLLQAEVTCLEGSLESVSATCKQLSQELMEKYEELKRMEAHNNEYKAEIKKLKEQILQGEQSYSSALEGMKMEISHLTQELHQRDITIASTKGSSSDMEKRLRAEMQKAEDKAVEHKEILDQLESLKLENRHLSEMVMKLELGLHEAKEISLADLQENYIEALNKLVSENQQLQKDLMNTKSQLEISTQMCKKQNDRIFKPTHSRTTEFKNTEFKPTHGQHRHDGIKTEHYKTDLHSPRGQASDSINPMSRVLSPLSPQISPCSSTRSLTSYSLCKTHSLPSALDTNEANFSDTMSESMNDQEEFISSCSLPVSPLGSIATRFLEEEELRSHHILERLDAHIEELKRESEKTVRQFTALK

effect of a mutation on the interaction | Variant
with no effect | R159S
with no effect | T77A

Variants of: B5
Details: with tri27_human TRIM27, P14373

effect of a mutation on the interaction | Variant
with no effect | K127R
